The record followed here is patent publication US20200024358A1 (published 2020).

T1: recombinant Human BCMA Fc Chimera (produced in-house via transient expression in HEK293-6E cells) (human, UniProt Q02223 1-54)
T1 construct: not shown: Fc part of the chimera
T1 sequence (looked up): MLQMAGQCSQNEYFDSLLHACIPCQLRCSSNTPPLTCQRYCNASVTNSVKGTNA

B1: CDR1-010 (other)
heavy: QIQLVQSGPELKKPGETVKISCKASGYTFTDYSINWVKRAPGKGLKWMGWINTETREPAYAYDFRGRFAFSLETSASTAYLQINNLKYEDTATYFCALDYSYAMDYWGQGTSVTVSSASTKGPSVFPLAPSSKSTSGGTAALGCLVKDYFPEPVTVSWNSGALTSGVHTFPAVLQSSGLYSLSSVVTVPSSSLGTQTYICNVNHKPSNTKVDKRVEPKSCGGGGSEIVMTQSPSTLSASVGDRVIITCQASEAIYSLLAWYQQKPGKAPKLLIYDASDLASGVPSRFSGSGSGAEFTLTISSLQPDDSATYYCQGNYGSSSSSSYGAVFGQGTKLTVLGGGGGSGGGGSGGGGSGGGGSEVQLVESGGGSVQPGGSLRLSCTVSGIDLSSYTMGWVRQAPGKGLEWVGIISSGGRTYYASWAKGRFTISRDTSKNTVYLQMNSLRAEDTATYYCARGRYTGYPYYFALWGQGTTVTVSS
light: DIVLTQSPASLAMSLGKRATISCRASESVSVIGAHLIHWYQQKPGQPPKLLIYLASNLETGVPARFSGSGSGTDFTLTIDPVEEDDVAIYSCLQSRIFPRTFGGGTKLEIKRTVAAPSVFIFPPSDEQLKSGTASVVCLLNNFYPREAKVQWKVDNALQSGNSQESVTEQDSKDSTYSLSSTLTLSKADYEKHKVYACEVTHQGLSSPVTKSFNRGECGGGGSAVVTQEPSLTVSPGGTVTLTCGSSTGAVTTSNYANWVQQKPGKSPRGLIGGTNKRAPGVPARFSGSLLGGKAALTISGAQPEDEADYYCALWYSNHWVFGGGTKLTVLGGGGGSGGGGSGGGGSGGGGSEVQLVESGGGSVQPGGSLRLSCAASGFTFSTYAMNWVRQAPGKGLEWVGRIRSKANNYATYYADSVKGRFTISRDDSKNTLYLQMNSLRAEDTATYYCVRHGNFGDSYVSWFAYWGQGTTVTVSS
B2: CDR1-013 (other)
heavy: B1 heavy with A253D, N316A
light: B1 light
B3: CDR1-015 (other)
heavy: B1 heavy with A253D, G413A
light: B1 light
B4: CDR1-014 (other)
heavy: B1 heavy with A253D, T392A
light: B1 light
B5: CDR1-018 (other)
heavy: B1 heavy with A253D, Y459A
light: B1 light
B6: CDR1-016 (other)
heavy: B1 heavy with A253D, R415A
light: B1 light
B7: CDR1-012 (other)
heavy: B1 heavy with A253D, D275A
light: B1 light
B8: CDR1-047 (other)
heavy: QIQLVQSGPELKKPGETVKISCKASGYTFTDYSINWVKRAPGKGLKWMGWINTETREPAYAYDFRGRFAFSLETSASTAYLQINNLKYEDTATYFCALDYSYAMDYWGQGTSVTVSSASTKGPSVFPLAPSSKSTSGGTAALGCLVKDYFPEPVTVSWNSGALTSGVHTFPAVLQSSGLYSLSSVVTVPSSSLGTQTYICNVNHKPSNTKVDKRVEPKSCGGGGSAVVTQEPSLTVSPGGTVTLTCGSSTGAVTTSNYANWVQQKPGKSPRGLIGGTNKRAPGVPARFSGSLLGGKAALTISGAQPEDEADYYCALWYSNHWVFGGGTKLTVLGGGGGSGGGGSGGGGSGGGGSEVQLVESGGGSVQPGGSLRLSCAASGFTFSTYAMNWVRQAPGKGLEWVGRIRSKANNYATYYADSVKGRFTISRDDSKNTLYLQMNSLRAEDTATYYCVRHGNFGDSYVSWFAYWGQGTTVTVSS
light: DIVLTQSPASLAMSLGKRATISCRASESVSVIGAHLIHWYQQKPGQPPKLLIYLASNLETGVPARFSGSGSGTDFTLTIDPVEEDDVAIYSCLQSRIFPRTFGGGTKLEIKRTVAAPSVFIFPPSDEQLKSGTASVVCLLNNFYPREAKVQWKVDNALQSGNSQESVTEQDSKDSTYSLSSTLTLSKADYEKHKVYACEVTHQGLSSPVTKSFNRGECGGGGSEIVMTQSPSTLSASVGDRVIITCQASEDIYSLLAWYQQKPGKAPKLLIYDASDLASGVPSRFSGSGSGAEFTLTISSLQPDDSATYYCQGNYGSSSSSSYGAVFGQGTKLTVLGGGGGSGGGGSGGGGSGGGGSEVQLVESGGGSVQPGGSLRLSCTVSGIDLSSYTMGWVRQAPGKGLEWVGIISSGGRTYYASWAKGRFTISRDTSKNTVYLQMNSLRAEDTATYYCARGRYTGYPYYFALWGQGTTVTVSS
notes: Trispecific Fab-scFv: anti-BCMA Fab, anti-CD3 scFv on the Fd, anti-PD-L1 scFv on the light chain
B9: CDR1-048 (other)
heavy: EVQLVESGGGSVQPGGSLRLSCAASGFTFSTYAMNWVRQAPGKGLEWVGRIRSKANNYATYYADSVKGRFTISRDDSKNTLYLQMNSLRAEDTATYYCVRHGNFGDSYVSWFAYWGQGTTVTVSSASTKGPSVFPLAPSSKSTSGGTAALGCLVKDYFPEPVTVSWNSGALTSGVHTFPAVLQSSGLYSLSSVVTVPSSSLGTQTYICNVNHKPSNTKVDKRVEPKSCGGGGSDIVLTQSPASLAMSLGKRATISCRASESVSVIGAHLIHWYQQKPGQPPKLLIYLASNLETGVPARFSGSGSGTDFTLTIDPVEEDDVAIYSCLQSRIFPRTFGGGTKLEIKGGGGSGGGGSGGGGSGGGGSQIQLVQSGPELKKPGETVKISCKASGYTFTDYSINWVKRAPGKGLKWMGWINTETREPAYAYDFRGRFAFSLETSASTAYLQINNLKYEDTATYFCALDYSYAMDYWGQGTSVTVSS
light: AVVTQEPSLTVSPGGTVTLTCGSSTGAVTTSNYANWVQQKPGKSPRGLIGGTNKRAPGVPARFSGSLLGGKAALTISGAQPEDEADYYCALWYSNHWVFGGGTKLTVLGTVAAPSVFIFPPSDEQLKSGTASVVCLLNNFYPREAKVQWKVDNALQSGNSQESVTEQDSKDSTYSLSSTLTLSKADYEKHKVYACEVTHQGLSSPVTKSFNRGECGGGGSEIVMTQSPSTLSASVGDRVIITCQASEDIYSLLAWYQQKPGKAPKLLIYDASDLASGVPSRFSGSGSGAEFTLTISSLQPDDSATYYCQGNYGSSSSSSYGAVFGQGTKLTVLGGGGGSGGGGSGGGGSGGGGSEVQLVESGGGSVQPGGSLRLSCTVSGIDLSSYTMGWVRQAPGKGLEWVGIISSGGRTYYASWAKGRFTISRDTSKNTVYLQMNSLRAEDTATYYCARGRYTGYPYYFALWGQGTTVTVSS
notes: Trispecific Fab-scFv: anti-CD3 Fab, anti-BCMA scFv on the Fd, anti-PD-L1 scFv on the light chain
B10: CDR1-049 (other)
heavy: EVQLVESGGGSVQPGGSLRLSCTVSGIDLSSYTMGWVRQAPGKGLEWVGIISSGGRTYYASWAKGRFTISRDTSKNTVYLQMNSLRAEDTATYYCARGRYTGYPYYFALWGQGTTVTVSSASTKGPSVFPLAPSSKSTSGGTAALGCLVKDYFPEPVTVSWNSGALTSGVHTFPAVLQSSGLYSLSSVVTVPSSSLGTQTYICNVNHKPSNTKVDKRVEPKSCGGGGSAVVTQEPSLTVSPGGTVTLTCGSSTGAVTTSNYANWVQQKPGKSPRGLIGGTNKRAPGVPARFSGSLLGGKAALTISGAQPEDEADYYCALWYSNHWVFGGGTKLTVLGGGGGSGGGGSGGGGSGGGGSEVQLVESGGGSVQPGGSLRLSCAASGFTFSTYAMNWVRQAPGKGLEWVGRIRSKANNYATYYADSVKGRFTISRDDSKNTLYLQMNSLRAEDTATYYCVRHGNFGDSYVSWFAYWGQGTTVTVSS
light: EIVMTQSPSTLSASVGDRVIITCQASEDIYSLLAWYQQKPGKAPKLLIYDASDLASGVPSRFSGSGSGAEFTLTISSLQPDDSATYYCQGNYGSSSSSSYGAVFGQGTKLTVLGTVAAPSVFIFPPSDEQLKSGTASVVCLLNNFYPREAKVQWKVDNALQSGNSQESVTEQDSKDSTYSLSSTLTLSKADYEKHKVYACEVTHQGLSSPVTKSFNRGECGGGGSDIVLTQSPASLAMSLGKRATISCRASESVSVIGAHLIHWYQQKPGQPPKLLIYLASNLETGVPARFSGSGSGTDFTLTIDPVEEDDVAIYSCLQSRIFPRTFGGGTKLEIKGGGGSGGGGSGGGGSGGGGSQIQLVQSGPELKKPGETVKISCKASGYTFTDYSINWVKRAPGKGLKWMGWINTETREPAYAYDFRGRFAFSLETSASTAYLQINNLKYEDTATYFCALDYSYAMDYWGQGTSVTVSS
notes: Trispecific Fab-scFv: anti-PD-L1 Fab, anti-CD3 scFv on the Fd, anti-BCMA scFv on the light chain
B11: CDR1-055 (other)
heavy: QIQLVQSGPELKKPGETVKISCKASGYTFTDYSINWVKRAPGKGLKWMGWINTETREPAYAYDFRGRFAFSLETSASTAYLQINNLKYEDTATYFCALDYSYAMDYWGQGTSVTVSSASTKGPSVFPLAPSSKSTSGGTAALGCLVKDYFPEPVTVSWNSGALTSGVHTFPAVLQSSGLYSLSSVVTVPSSSLGTQTYICNVNHKPSNTKVDKRVEPKSCGGGGSQVQLVESGGGLVQPGGSLRLSCAASGKMSSRRCMAWFRQAPGKGLERVAKLLTTSGSTYLADSVKGRFTISRDNSKNTVYLQMNSLRAEDTAVYYCAADSFEDPTCTLVTSSGAFQYWGQGTLVTVSS
light: B1 light
notes: Trispecific: anti-BCMA Fab, anti-PD-L1 sdAb on the Fd, anti-CD3 scFv on the light chain

Numbering of substitutions follows the chain as printed.

T4 sequence (P07766 23-126): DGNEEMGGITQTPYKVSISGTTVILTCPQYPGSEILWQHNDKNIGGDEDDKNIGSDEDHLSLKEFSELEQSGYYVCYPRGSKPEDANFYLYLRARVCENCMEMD

In one test the target is T2, extracellular domain of human PD-L1 (Example 8) (human, UniProt Q9NZQ7 19-238).
T2 construct: extracellular domain; also called PD-L1 antigen; immobilized PD-L1
T2 sequence (Q9NZQ7 19-238): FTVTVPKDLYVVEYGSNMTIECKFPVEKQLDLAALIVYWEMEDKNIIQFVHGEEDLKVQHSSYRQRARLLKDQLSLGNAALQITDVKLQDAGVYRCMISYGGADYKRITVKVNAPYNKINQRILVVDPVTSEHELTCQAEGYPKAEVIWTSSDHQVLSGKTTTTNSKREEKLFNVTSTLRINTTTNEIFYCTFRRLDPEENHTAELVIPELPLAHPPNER
Description: ELISA on coated extracellular domain of human PD-L1, serial dilutions.
Description: Serial dilutions of the antibodies to final concentrations ranging from 0.5 ng/mL to 50 μg/ml were tested by ELISA for binding to the extracellular domain of human PD-L1 coated on a 96 well plate.
In the case of B1, the binding result was “binds”.
Same read-out and setting: the entry for B2 is “binds”; for B3 it is “binds”.
Same read-out and setting: in the case of B4 it was “binds”; in that of B5, “binds”.
Regarding B6, the binding result was “binds”.
Same read-out and setting: the entry for B7 is “binds”.

The target in the next test is T3, recombinant human PD-L1 His-tag protein (expressed after transient transfection in HEK293-6E) (human, UniProt Q9NZQ7 19-238, limits assumed).
T3 construct: not shown: His-tag
T3 sequence (Q9NZQ7 19-238 limits assumed): as the sequence (Q9NZQ7 19-238) above
Description: dual-binding ELISA: BCMA Fc coated, then PD-L1 His, anti-His detection.
Take B8: the binding result was “binds”.
Same read-out and setting: in the case of B9 it was “binds”.
The same measure, in the same setting: the entry for B10 is “binds”; for B11 it is “binds”.

The next test concerns the target T4, recombinant human CD3 epsilon His-tag protein (Novoprotein, Cat. No. C578) (human, UniProt P07766 23-126).
T4 construct: Bought protein; not shown: His-tag
Description: dual-binding ELISA: BCMA Fc coated, then CD3 epsilon His, anti-His detection. A general note: An ELISA detects its analyte on a solid surface through an enzyme-linked reagent.
B8: the binding result was “binds”.
On the same count and under the same terms, in the case of B9 it was “binds”; in that of B10, “binds”; in that of B11, “binds”.

The target of the next test is T1, recombinant Human BCMA Fc Chimera …. As to the kind of experiment: dual-binding ELISA: BCMA Fc coated, then CD3 epsilon His or PD-L1 His, anti-His detection.
Description: Trispecific antibody molecules were tested for their ability to bind the different targets using a Dual-Binding ELISA. […] Simultaneous binding to antigen pairs was detected via an anti-His antibody (Abcam, Cat. No. ab1187).
On to B8, for which the binding result was “binds”.
Same read-out and setting: the entry for B9 is “binds”; for B10 it is “binds”; for B11 it is “binds”.
